Columns and labels:
[1] = target: human thrombomodulin (hTBM) expressed from the B200 vector on porcine aortic endothelial cells (UniProt P07204)
collagen agonist = assay: cell-based or functional assay; conditions: scale: % more aggregation than the monoallelic vWF edit blood

Chain of UniProt P07204 (P07204 whole entry, looked up): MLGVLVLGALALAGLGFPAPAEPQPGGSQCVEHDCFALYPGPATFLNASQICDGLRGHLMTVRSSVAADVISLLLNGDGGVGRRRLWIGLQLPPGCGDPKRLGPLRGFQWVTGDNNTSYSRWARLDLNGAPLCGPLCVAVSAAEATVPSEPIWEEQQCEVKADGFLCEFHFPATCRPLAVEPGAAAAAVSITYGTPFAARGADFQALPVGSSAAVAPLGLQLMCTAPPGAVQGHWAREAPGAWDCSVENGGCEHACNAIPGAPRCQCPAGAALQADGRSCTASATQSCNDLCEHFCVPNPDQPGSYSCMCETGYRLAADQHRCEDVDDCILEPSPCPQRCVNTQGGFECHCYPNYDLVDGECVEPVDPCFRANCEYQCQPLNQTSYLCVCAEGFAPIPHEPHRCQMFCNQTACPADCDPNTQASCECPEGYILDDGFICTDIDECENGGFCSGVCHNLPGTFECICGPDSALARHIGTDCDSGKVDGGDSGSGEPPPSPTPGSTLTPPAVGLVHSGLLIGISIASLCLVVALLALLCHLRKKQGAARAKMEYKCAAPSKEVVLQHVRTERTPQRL

Substance	activated protein C (APC) assay on pAEC: human thrombin and human Protein C added, Chromogenix S-2366 substrate, absorbance at 405 nm, nM APC/mg protein [1]	whole blood platelet aggregation (Chrono-log Whole Blood Aggregometer) after collagen agonist (2 ug/mL) (collagen agonist)
human thrombin	pAEC from a transgenic pig expressing hTBM and hEPCR from the B200 vector showed a significantly elevated APC levels when compared to GTKO transgenic pig control	
porcine von Willebrand factor (unmodified) (from UniProt Q28833 438-2482)		50

— patent US20220211018A1
